Test results as given in patent US20180022800A1.

Target: recombinant mouse OSM (mouse) (UniProt P53347)
Assay: cell-based or functional assay

Chain of UniProt P53347 (P53347 24-206 limits assumed): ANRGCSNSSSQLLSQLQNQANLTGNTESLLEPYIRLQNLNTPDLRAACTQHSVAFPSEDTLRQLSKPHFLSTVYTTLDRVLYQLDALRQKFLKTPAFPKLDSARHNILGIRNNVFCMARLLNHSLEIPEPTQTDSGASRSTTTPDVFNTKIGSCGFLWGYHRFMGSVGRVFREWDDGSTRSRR

Question: With “O-RFP (recombinant murine OSM receptor fusion protein) (from UniProt O70458 24-426; Q00560 123-322) (Fc fusion)” as the substance, how does the molar ratio of neutralizing agent required for 50% neutralization (SOCS3 expression in mouse colonic fibroblasts treated with 10 ng/ml recombinant mouse OSM, 2 hours) (molar ratio (neutralizing agent:OSM)) read?
Answer: 1.7
